Measured values as given in the nanobody polyreactivity screen of Harvey et al. (2022).

Assay: yeast display, Sf9 membrane polyspecificity reagent, FACS + sequencing; frameworks hold sequencing errors
How it was run: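 Galactose-induced (36–48 hours) yeast carrying a synthetic nanobody display library were exposed to 10% biotinylated, detergent-solubilized Sf9 membrane reagent at 4 °C for 1 hour. FACS followed streptavidin microbead enrichment, using low and high (top ~1%) gates for expression (anti-HA) and reagent binding (streptavidin). Colony PCR, MiSeq 2 × 250 sequencing and CDR-length filtering followed. Labels for polyreactivity reflect the gate of origin.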

Question: For “QVQLVETGGGLVQAGGSHRLSCAASGLTFYTYAMGWYRQAPGKERELVAAISTNGGSKYYADSVKGRFTISRDNAKNTVYLQRNCLKPEDTAVYYCAIEGGTYRIFNYWGQGTQVTVSS”, which “polyreactivity (PSR sort gate)” value is on record?
Answer: low polyreactivity

Question: With “QVQLVESGGGIVQAGGSLRLSCAASGFTFGDYVMGWYRPAPGNERELVAAITTSGTRTSYADSVKGRFTISRDNAKNTVFLQMNSLKPEDTAVYYCAAEHTNYYYFWQAHYYWGPGTQVTVSS” as the sequence, how does the “polyreactivity (PSR sort gate)” value read?
Answer: high polyreactivity

Question: Which “polyreactivity (PSR sort gate)” value does the source give for “QVQLEESGGGLVQAGGSLRLSCAASGYTFFTNVMGWYRQAPGKERELVATITTGGSTYADSVKGRFTISRDNAKNTVYLQMNSLKPEDTAVYYCAVDALTGAWLGGYPYWADGYDYWGQGTQVTVSS” here?
Answer: low polyreactivity

Question: Which “polyreactivity (PSR sort gate)” value does the source give for “QVQLVESGGGLVQAGGSLRLSCAASGSTFKKYAMGWYRQAPGKERELVAAITWTGGSTYYADSVKGRFTISRDNAKNTVYFQMNSLKPEDTAVYYCAAYKTYAVKYYWGQGTQVTVSS” here?
Answer: high polyreactivity

Question: Which “polyreactivity (PSR sort gate)” value does the source give for “QVQLVESGGGLVQAGGSLRFSCAASGRTFTIYAMGWYRQAPGKERELVAAISWSEGSTYYADSVKGRFTISRDNAKNTVYLQMNSLKPEDTAVYYCAREVYGDASAPDMDYWGQGTQVTVSS” here?
Answer: low polyreactivity

Question: Which “polyreactivity (PSR sort gate)” value does the source give for “QVQLVESGGGLVQAGGSLRLSCAASGSIFPSYAMGWYRQAPGKERELVAAISRSAGSTYYADSVKGRFTISRDNAKNTVYLQMNSLKPEVTAVYYCAADVYSSRYRYDYWGQGTQVTVSS” here?
Answer: low polyreactivity

Question: With “QVQLVESGGGLVQAGGSLRLSCAASGSTFARYAMGWYRQAHGKERELVAAISRRGGSTYYADSVKGRFTISRDNAKNTVYVQMNSLKPEDTAVHYCAARYGIISSFEYDYWGQGTQVTVSS” as the sequence, how does the “polyreactivity (PSR sort gate)” value read?
Answer: high polyreactivity

Question: Which “polyreactivity (PSR sort gate)” value does the source give for “QVQLVESGGGLVQAGGSLRLSCADSGSIFYTYAMGWYRQAPGKEREFVAAITQTGGTTYNADSVKGRFTISRDNAKNTVYFQMNSLKQEDTAVYYCAARYRAYKLYGRHYYWGQGTQVTVSS” here?
Answer: high polyreactivity

Question: Which “polyreactivity (PSR sort gate)” value does the source give for “QVQLVESGGGLVQAGGSLRLSCAASGRTFTSYAMGWYRQAPGKERELVATISWSGGSTYYADSVKGRFTISRDNAKNTVYLQMNSLKPEDTAVYYCAALKPWTTGYGDRFDYWGQGTQVTVSS” here?
Answer: low polyreactivity

Question: For “QVQLVESGGGLVQAGGSLRLSCPASGITFIYYAMGWYRQAPGKEREFVAAINYRGTSTYYADSVKGRFTISRDNPKNTVYLQMNSLKPEDTAVYYCAAGPRRTWYRSLGYSFYKYYYWGQGTQVTVSS”, which “polyreactivity (PSR sort gate)” value is on record?
Answer: high polyreactivity

Question: Which “polyreactivity (PSR sort gate)” value does the source give for “QVQLEESGGGLVHAGGSLRLSCAASGFIFKANAMGWYRQAPGKEREFVASISSSGGSTYYADSVKGRFTISRDNAKNTVYLHMNSLKPEDTAVYYCAAYTGYRHSRINLGYWGQGTQVTVSS” here?
Answer: high polyreactivity

Question: With “QVQLVESGGGLVQAGGSLRISCAASGITLINDAMGWYRQAPGKERELVAAITYRGVSTYYADSVKGRFTISRDNAKNTVYLQMKSLKPEDTAVYYCAAGYYWQYTSSSAQYSYDYWGQGTQVTVSS” as the sequence, how does the “polyreactivity (PSR sort gate)” value read?
Answer: low polyreactivity

Question: With “QVQLVESGGGLVQAGGSLRLSCAASGSIFFYYAMGWYRQAPGKERELVATINWSGGSTYYADSVKGRFTISRDNAKNTVYLQMNSLKPEDTAVYYCAAKDITLPGTMDSWGQGTQVTVSS” as the sequence, how does the “polyreactivity (PSR sort gate)” value read?
Answer: low polyreactivity

Question: With “QVQLVESGGGLVQAGGSLRLICAASGFTFDYNAMGWYRPAPVKERELVAAISGSGGSTFYADSVKGRFTISRDNAKNTVYLQMNSLKPEDTAVYYCNVYQHDDDFDYWGQGTQVTVSS” as the sequence, how does the “polyreactivity (PSR sort gate)” value read?
Answer: low polyreactivity

Question: Which “polyreactivity (PSR sort gate)” value does the source give for “QVQLEESGGGLVQAGGSLRISCAAYGSTFYYNVMGWYRQAPGKERELVAAITWRGDITYYADSVKGRFTISRDNAKYNVYLQMKCLKPEDTAVFYCAKRYQPSYRSNFWGEGTQVTVSS” here?
Answer: low polyreactivity

Question: Which “polyreactivity (PSR sort gate)” value does the source give for “QVQLVESGGGLVQAGGSLRLSCAASGRIFDIYTMGWYRQAPGKERELVASITKRGGSTYYADSVKGRFTISRDNAKNTVYLQMNSLKPEDTAVYYCNAVYSWYRRYGLEGYWGQGTQVTVSS” here?
Answer: high polyreactivity

Question: For “QVQLVESGGGLVQAGGSLRLSCAASGFIFYNYAMGWYRQAPGKERELVADINSTGITYYADSVKGRFTISRDNAKNTVYLQMNSLKPEDTAVYYCAKDILTSSYRAYSPFEYGYWGQGTQVTVSS”, which “polyreactivity (PSR sort gate)” value is on record?
Answer: low polyreactivity

Question: Which “polyreactivity (PSR sort gate)” value does the source give for “QVLLVESGGGLVHAGGSLRLSCAASGSISKINAMRRYRQAPGKERELVAAINTGDSTYYADSVKGRFTISRDNAKYTGYLQMNSLKPEDTAVYYCAAEGSPSGYDYWGQGTQVNVSS” here?
Answer: low polyreactivity

Question: Which “polyreactivity (PSR sort gate)” value does the source give for “QVQLVESGGGLVQAGGSLRLSCAASGFTFYRNAMGWYRQAPGKERELVAAISSRGGSTYYADSVKGRFTISRDNAKNTVYLQMNSLKPEDTAVYYCAAYGNYNEYDYWGQGTQVTVSS” here?
Answer: high polyreactivity

Question: With “QVQLVESGGGLVQAGGILRLSCAASGSIFSPNAKGWYRQAPGKVRQLVAAIDFSAGSTYYADSVKGRFTISRDNAKNTVYLQMHSLKPEDTAVYYCAADYYYSYCYWFSSSYGYWGPGTQVTVSS” as the sequence, how does the “polyreactivity (PSR sort gate)” value read?
Answer: high polyreactivity

Question: For “QVQLVESGGGLVQAGGSLRLSCAASGLIFRYSGMGWYRQATGKERELVAAIRWSAGSTYYADSVKGRFTISRDNAKNTVYLQMNSLKPEDTAVYYCAARAPVAGYKYRYDYWGQGTQVTVSS”, which “polyreactivity (PSR sort gate)” value is on record?
Answer: high polyreactivity

Question: With “QVQLVESGGGLVQAGGSLRLSCAASGRSFQDNAMGWYRQAPGKERELVAAISWRGGSTNYADSVKGRFTISRDNAKNTVYLQMNSLKPEDTAVYYCAKGIRRWYGGSDYWGQGTQVNVSS” as the sequence, how does the “polyreactivity (PSR sort gate)” value read?
Answer: low polyreactivity

Question: With “QVQLVESGGGLVQAGGSLRLSCAASGRTFSYYAMGWYRQAPGKERELVASISYSAGRTYYADSVKGRFTISRDNAKNTVYLQMNSLKPEDTAVYYCAVRGVRRFPVRTGSYTRYGDYYWGQGTQVTVSS” as the sequence, how does the “polyreactivity (PSR sort gate)” value read?
Answer: high polyreactivity

Question: Which “polyreactivity (PSR sort gate)” value does the source give for “QVQLVESGGGLVQAGGSLRLSCAASGSTIDYYAMGWYRQARGKERELVAAISWSGGSTYYADSVKGRFTISRDNAKNTVYLQMNSLKPEDTAVYYCAADSAFYTGSYYGWSDYDYWGQGTQVTVSS” here?
Answer: low polyreactivity

Question: Which “polyreactivity (PSR sort gate)” value does the source give for “QVQLVESGGGLVQAGGSLRLSCAASGRIFRYYAMGWYRQAPGKERELVAAINWGGGSTYYADSVKGRFTISRDNAKNTVYLQMNSLKPEDTAVYYCNRDRNSFPHYFSHYGYWGQGTQVTVSS” here?
Answer: high polyreactivity

Question: With “QVQLVESGGGLVQAGGSLLLSCAASGSTFDDKAMGWYRQAPGKERELVAAISSDGSTNYADSVKGRFTISRDTAKNTVYLQMNCLKPADTAVYYCAAESPWDWGSWFEALYDYWGLGTQVTVSS” as the sequence, how does the “polyreactivity (PSR sort gate)” value read?
Answer: high polyreactivity

Question: For “QVQLVESGGGLVQAGGSLRLSCAASGSIRYYVKGWYRQAPGKERELVAGINWSGGSTYYADSVKGRFTISRDNAKNTVYLQMNSLKPEDTAVYYCAARFVGVRDGYYYWGQGTQVTLSS”, which “polyreactivity (PSR sort gate)” value is on record?
Answer: high polyreactivity

Question: Which “polyreactivity (PSR sort gate)” value does the source give for “QVQLVESGGGLVQAGGSLRLICAASGSTFYRNVMGWYRQAPGKERELVAAISSGGSTYYADSVKGRFTISRDNAKNTVYLQMNSLKPEDTAVYYCAARKRYSYDYWGQGTQVTVSS” here?
Answer: low polyreactivity

Question: With “QVQLVESGGGLVQAGGSLRLSCAASGRTFRYYAMGWYRQAPGKERELVATISKSGGSTYYADSVKGRFTISRDNAKNTVYLQMNSLKPVDTAVYYCAAVGPYRWYDYWGQGTQVTVSS” as the sequence, how does the “polyreactivity (PSR sort gate)” value read?
Answer: high polyreactivity

Question: For “QVQLVESGGGLVQAGGSLRLSCAASGFTFDENAMGWYRQAPGINYSGASTYYAVSVKGRFTIARDNAKNTVYLQMNSLKPEDTAVYYCAAEVLAQMNYWGQGTQVTVSS”, which “polyreactivity (PSR sort gate)” value is on record?
Answer: low polyreactivity

Question: Which “polyreactivity (PSR sort gate)” value does the source give for “QVQLVESGGGLVQAGGSLRLSCAASGFIFFINDMGWYRQAPGKERELVAAISWSGGSTYYADSVKGRFTLSRDNAKNTVYLQMNSLKPEDTAVNYCNTDVPTAQYDYWGQGSQVTVSS” here?
Answer: low polyreactivity
